Experimental findings from paper PMC6195611 are described below.

“And” between values parts separate entries of the source, which are not always exact repeats. Identical values can stand only once.

Assay [1] addresses wild type SAASoti (Stylocoeniella armata). Put plainly: SEC; Superdex 200 10/300 GL, 20 mM Tris-HCl 150 mM NaCl pH 7.5, 0.5 ml/min, absorbance at 280 and 509 nm (the legend of Fig. 2 gives Tris-HCl 100 mM, CaCl2 10 mM, pH 7.6); wild type also run with DTT. A general note: SEC sorts molecules by how far they enter the pores of the column.
For assay [2], the target named is K145N SAASoti (Stylocoeniella armata). The assay is described as above.
For assay [3] the target is unchanged. Put plainly: two-focus fluorescence correlation spectroscopy (2fFCS); diffusion coefficient; 10 mM phosphate buffer, 150 mM NaCl pH 7.4, ~10^-9 M protein, 25 °C.
Assay [4] deals with V127T SAASoti (Stylocoeniella armata). The experiment in a line: SEC; V127T SAASoti at high concentration (0.22 mM).
In assay [5] the target is K149N SAASoti (Stylocoeniella armata). The experiment in a line: SEC; Superdex 200 10/300 GL, 20 mM Tris-HCl 150 mM NaCl pH 7.5, 0.5 ml/min, absorbance at 280 and 509 nm (the legend of Fig. 2 gives Tris-HCl 100 mM, CaCl2 10 mM, pH 7.6); wild type also run with DTT.
Assay [6] has the same target. Put plainly: two-focus fluorescence correlation spectroscopy (2fFCS); diffusion coefficient; 10 mM phosphate buffer, 150 mM NaCl pH 7.4, ~10^-9 M protein, 25 °C.
For assay [7], the target named is K149E SAASoti (Stylocoeniella armata). Put plainly: SEC; Superdex 200 10/300 GL, 20 mM Tris-HCl 150 mM NaCl pH 7.5, 0.5 ml/min, absorbance at 280 and 509 nm (the legend of Fig. 2 gives Tris-HCl 100 mM, CaCl2 10 mM, pH 7.6); wild type also run with DTT.
The target is the same in assay [8]. The experiment in a line: two-focus fluorescence correlation spectroscopy (2fFCS); diffusion coefficient; 10 mM phosphate buffer, 150 mM NaCl pH 7.4, ~10^-9 M protein, 25 °C.
In assay [9] the target is K145E SAASoti (Stylocoeniella armata). Put plainly: SEC; Superdex 200 10/300 GL, 20 mM Tris-HCl 150 mM NaCl pH 7.5, 0.5 ml/min, absorbance at 280 and 509 nm (the legend of Fig. 2 gives Tris-HCl 100 mM, CaCl2 10 mM, pH 7.6); wild type also run with DTT.

The stoichiometry N is the number of molecules, sites or subunits per partner or assembly. Consider wild type SAASoti (natural protein), for which the stoichiometry N in [1] is 4 and 8.

Regarding K145N SAASoti (natural protein), the stoichiometry N in [2] and in assay [3] was 4 throughout.

In the case of V127T SAASoti (natural protein), the stoichiometry N in assay [4] was 2.

Regarding K149N SAASoti (natural protein), the stoichiometry N in assay [5] and in assay [6] was 4 throughout.

K149E SAASoti (natural protein): the stoichiometry N in assay [7] and in [8] was 4 in each case.

Turning to K145E SAASoti (natural protein), in assay [9], the stoichiometry N amounted to 4.
